{"source": "paper PMC3239214", "about": "(Nucleic Acids Research, 2011)", "proteins": {"B1": {"name": "GyrA_ΔCTD (domain or fragment, Bacillus subtilis, UniProt P05653 1-489, looked up)", "chain": "MSEQNTPQVREINISQEMRTSFLDYAMSVIVSRALPDVRDGLKPVHRRILYAMNDLGMTSDKPYKKSARIVGEVIGKYHPHGDSAVYESMVRMAQDFNYRYMLVDGHGNFGSVDGDSAAAMRYTEARMSKISMEILRDITKDTIDYQDNYDGSEREPVVMPSRFPNLLVNGAAGIAVGMATNIPPHQLGEIIDGVLAVSENPDITIPELMEVIPGPDFPTAGQILGRSGIRKAYESGRGSITIRAKAEIEQTSSGKERIIVTELPYQVNKAKLIEKIADLVRDKKIEGITDLRDESDRTGMRIVIEIRRDANANVILNNLYKQTALQTSFGINLLALVDGQPKVLTLKQCLEHYLDHQKVVIRRRTAYELRKAEARAHILEGLRVALDHLDAVISLIRNSQTAEIARTGLIEQFSLTEKQAQAILDMRLQRLTGLEREKIEEEYQSLVKLIAELKDILANEYKVLEIIREELTEIKERFNDERRTEIVT"}}, "target": "the molecule itself", "experiment": "SEC", "data": [{"protein": "B1", "values": [{"measurement": "stoichiometry N", "value": 2}]}]}
